Columns and labels:
[1] = target: Aβ1-42 peptide, oligomer-enriched preparation; test: ELISA assay 1, Ab 1:64 of 0.5 µg/ml
[2] = target: Aβ1-42 peptide, monomer-enriched preparation; test: ELISA assay 1, Ab 1:64 of 0.5 µg/ml
[3] = target: Aβ1-42 peptide, high molecular weight (HMW) proto-fibrillar (PF) oligomer enriched preparation (human); test: ELISA, Ab 0.0313 µg/ml; proto-fibrils against LMW monomers (given without sign)
[4] = target: Aβ1-42 peptide, oligomer-enriched preparation; test: ELISA assay 2, Ab 1:64 of 0.5 µg/ml
[5] = target: Aβ1-42 peptide, monomer-enriched preparation; test: ELISA assay 2, Ab 1:64 of 0.5 µg/ml
[6] = target: Aβ1-42 peptide, low molecular weight (LMW) monomer preparation (human); test: ELISA on coated fraction, Ab 1 µg/ml
[7] = target: Aβ1-42 peptide, high molecular weight (HMW) proto-fibrillar (PF) oligomer enriched preparation (human); test: ELISA on coated fraction, Ab 1 µg/ml
[8] = target: Aβ1-42 peptide, oligomer-enriched preparation; test: ELISA assay 3, Ab 1:64 of 0.5 µg/ml
[9] = target: Aβ1-42 peptide, monomer-enriched preparation; test: ELISA assay 3, Ab 1:64 of 0.5 µg/ml
[10] = target: Aβ1-42 peptide, oligomer-enriched preparation; test: ELISA mean of 3, Ab 1:2 of 0.5 µg/ml
[11] = target: Aβ1-42 peptide, monomer-enriched preparation; test: ELISA mean of 3, Ab 1:2 of 0.5 µg/ml
[12] = target: Aβ1-42 peptide, high molecular weight (HMW) proto-fibrillar (PF) oligomer enriched preparation (human); test: ELISA, Ab 0.125 µg/ml; proto-fibrils against LMW monomers (given without sign)
[13] = target: Aβ1-42 peptide, low molecular weight (LMW) monomer preparation (human); test: ELISA on coated fraction, Ab 0.0625 µg/ml
[14] = target: Aβ1-42 peptide, high molecular weight (HMW) proto-fibrillar (PF) oligomer enriched preparation (human); test: ELISA on coated fraction, Ab 0.0625 µg/ml
[15] = target: Aβ1-42 peptide, oligomer-enriched preparation; test: ELISA assay 3, Ab 1:2 of 0.5 µg/ml
[16] = target: Aβ1-42 peptide, monomer-enriched preparation; test: ELISA assay 3, Ab 1:2 of 0.5 µg/ml
[17] = target: Aβ1-42 peptide, oligomer-enriched preparation; test: ELISA assay 2, Ab 1:128 of 0.5 µg/ml
[18] = target: Aβ1-42 peptide, monomer-enriched preparation; test: ELISA assay 2, Ab 1:128 of 0.5 µg/ml
[19] = target: Aβ1-42 peptide, oligomer-enriched preparation; test: ELISA assay 3, Ab 1:128 of 0.5 µg/ml
[20] = target: Aβ1-42 peptide, monomer-enriched preparation; test: ELISA assay 3, Ab 1:128 of 0.5 µg/ml
[21] = target: Aβ1-42 peptide, low molecular weight (LMW) monomer preparation (human); test: ELISA on coated fraction, Ab 0.0156 µg/ml
[22] = target: Aβ1-42 peptide, high molecular weight (HMW) proto-fibrillar (PF) oligomer enriched preparation (human); test: ELISA on coated fraction, Ab 0.0156 µg/ml
[23] = target: Aβ1-42 peptide, oligomer-enriched preparation; test: ELISA mean of 3, Ab 1:1 of 0.5 µg/ml
[24] = target: Aβ1-42 peptide, monomer-enriched preparation; test: ELISA mean of 3, Ab 1:1 of 0.5 µg/ml
[25] = target: Aβ1-42 peptide, oligomer-enriched preparation; test: ELISA mean of 3, Ab 1:64 of 0.5 µg/ml
[26] = target: Aβ1-42 peptide, monomer-enriched preparation; test: ELISA mean of 3, Ab 1:64 of 0.5 µg/ml
[27] = target: Aβ1-42 peptide, oligomer-enriched preparation; test: ELISA assay 1, Ab 1:32 of 0.5 µg/ml
[28] = target: Aβ1-42 peptide, monomer-enriched preparation; test: ELISA assay 1, Ab 1:32 of 0.5 µg/ml
[29] = target: Aβ1-42 peptide, oligomer-enriched preparation; test: ELISA assay 2, Ab 1:1 of 0.5 µg/ml
[30] = target: Aβ1-42 peptide, monomer-enriched preparation; test: ELISA assay 2, Ab 1:1 of 0.5 µg/ml
[31] = target: Aβ1-42 peptide, oligomer-enriched preparation; test: ELISA assay 1, Ab 1:2 of 0.5 µg/ml
[32] = target: Aβ1-42 peptide, monomer-enriched preparation; test: ELISA assay 1, Ab 1:2 of 0.5 µg/ml
[33] = target: Aβ1-42 peptide, low molecular weight (LMW) monomer preparation (human); test: ELISA on coated fraction, Ab 0.125 µg/ml
[34] = target: Aβ1-42 peptide, high molecular weight (HMW) proto-fibrillar (PF) oligomer enriched preparation (human); test: ELISA on coated fraction, Ab 0.125 µg/ml
[35] = target: Aβ1-42 peptide, high molecular weight (HMW) proto-fibrillar (PF) oligomer enriched preparation (human); test: ELISA, Ab 0.5 µg/ml; proto-fibrils against LMW monomers (given without sign)
[36] = target: Aβ1-42 peptide, oligomer-enriched preparation; test: ELISA assay 2, Ab 1:4 of 0.5 µg/ml
[37] = target: Aβ1-42 peptide, monomer-enriched preparation; test: ELISA assay 2, Ab 1:4 of 0.5 µg/ml
[38] = target: Aβ1-42 peptide, high molecular weight (HMW) proto-fibrillar (PF) oligomer enriched preparation (human); test: ELISA, Ab 0.0156 µg/ml; proto-fibrils against LMW monomers (given without sign)
[39] = target: Aβ1-42 peptide, low molecular weight (LMW) monomer preparation (human); test: ELISA on coated fraction, Ab 0.0078 µg/ml
[40] = target: Aβ1-42 peptide, high molecular weight (HMW) proto-fibrillar (PF) oligomer enriched preparation (human); test: ELISA on coated fraction, Ab 0.0078 µg/ml

Sequence of Aβ1-42 peptide, high molecular weight (HMW) proto-fibrillar (PF) oligomer enriched preparation (human) (peptide, as listed by the source, form in doubt): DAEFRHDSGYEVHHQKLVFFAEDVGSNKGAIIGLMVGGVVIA
Sequence of Aβ1-42 peptide, low molecular weight (LMW) monomer preparation (human) (peptide, as listed by the source, form in doubt): as above
Sequence of Aβ1-42 peptide, oligomer-enriched preparation (peptide, as listed by the source, form in doubt): as above
Sequence of Aβ1-42 peptide, monomer-enriched preparation (peptide, as listed by the source, form in doubt): as above

6E10 control antibody
O.D. [1]: 0.93 O.D.
O.D. [2]: 0.81 O.D.
O.D. difference [3]: 0.04 O.D.
O.D. [4]: 0.88 O.D.
O.D. [5]: 0.94 O.D.
O.D. [6]: 2.68 O.D.
O.D. [7]: 2.55 O.D.
O.D. [8]: 0.95 O.D.
O.D. [9]: 1.08 O.D.
O.D. (mean) [10]: 3.59 O.D.
O.D. (mean) [11]: 3.59 O.D.
O.D. difference [12]: 0.14 O.D.
O.D. [13]: 0.574 O.D.
O.D. [14]: 0.544 O.D.
O.D. [15]: 3.83 O.D.
O.D. [16]: 4 O.D.
O.D. [17]: 0.61 O.D.
O.D. [18]: 0.75 O.D.
O.D. [19]: 0.66 O.D.
O.D. [20]: 0.86 O.D.
O.D. [21]: 0.207 O.D.
O.D. [22]: 0.201 O.D.
O.D. (mean) [23]: 3.64 O.D.
O.D. (mean) [24]: 3.83 O.D.
O.D. (mean) [25]: 0.92 O.D.
O.D. (mean) [26]: 0.94 O.D.
O.D. [27]: 1.27 O.D.
O.D. [28]: 1.18 O.D.
O.D. [29]: 3.67 O.D.
O.D. [30]: 3.77 O.D.
O.D. [31]: 3.39 O.D.
O.D. [32]: 3.3 O.D.
O.D. [33]: 0.999 O.D.
O.D. [34]: 0.863 O.D.
O.D. difference [35]: 0.13 O.D.
O.D. [36]: 3.37 O.D.
O.D. [37]: 3.29 O.D.
O.D. difference [38]: 0.01 O.D.
O.D. [39]: 0.133 O.D.
O.D. [40]: 0.116 O.D.
